# Reference: article PMC8519809 (Cell Reports, 2021)
# B1: Fab22 (Fab, V domains shown)
# VH: EVQLQQPGPVLVKPGASVRMSCKASGYRITDNFMNWVKQSHGKSLEWIGIINPYNGGTKYNQKFKGKATLTVDTSSSTAYMELNSLTSEDSAVYYCTRVRGNDYHGRAMDYWGQGTSVTVSS
# VL: DVVLTQTPLSLPVNIGDQASISCKSTKSLLNRDGFTFLDWYLQKPGQSPQLLIYLVSNRFSGVPDRFSGSGSGTDFTLKISRVEAEDLGVYYCFQSNYLFTFGSGTKLEIK
# Target: SARS-CoV-2 S-HexaPro protein (SARS-CoV-2, Wuhan-Hu-1 type, stabilised)
# Test: SPR
binder,measurement,value
B1,Kd,6.7 nM
